# Measurements reported in publication PMC6957272, “Activation of a nucleotide-dependent RCK domain requires binding of a cation cofactor to a conserved site” (eLife, 2019).
# Positions count from the first letter of the chain named. Numbers in names are those of the source.
# T1: KtrB (B. subtilis, UniProt O32081 1-445)
# T1 construct: KtrB, membrane protein of the B. subtilis KtrAB cation channel; The Strep tag held KtrB on Strep-Tactin beads while KtrA was added to assemble the complex; it was cleaved by thrombin before the size-exclusion step; also called wild-type KtrB; source: E. coli BL21(DE3), extracted with DDM, purified (Strep-Tactin Sepharose, size exclusion); not shown: Strep, N-terminal, cleaved
# T1 sequence (looked up): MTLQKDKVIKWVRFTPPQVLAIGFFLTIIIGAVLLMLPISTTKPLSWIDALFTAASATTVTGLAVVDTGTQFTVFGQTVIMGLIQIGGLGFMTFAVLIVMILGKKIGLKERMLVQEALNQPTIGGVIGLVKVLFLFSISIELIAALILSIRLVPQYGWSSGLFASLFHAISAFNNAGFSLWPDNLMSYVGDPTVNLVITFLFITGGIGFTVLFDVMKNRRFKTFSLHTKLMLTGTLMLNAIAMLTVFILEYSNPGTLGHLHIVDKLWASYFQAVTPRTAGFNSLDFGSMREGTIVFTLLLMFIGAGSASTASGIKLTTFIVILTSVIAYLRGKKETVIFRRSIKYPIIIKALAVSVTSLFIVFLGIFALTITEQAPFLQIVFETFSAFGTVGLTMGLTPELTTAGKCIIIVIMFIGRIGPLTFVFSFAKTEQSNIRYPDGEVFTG
# B1: KtrA A80P mutant (natural protein, B. subtilis)
# chain: MGRIKNKQFAVIGLGRFGGSICKELHRMGHEVLAVDINEEKVNAYASYATHAVIANATEENELLSLGIRNFEYVIVAIGPNIQASTLTTLLLKELDIPNIWVKAQNYYHHKVLEKIGADRIIHPEKDMGVKIAQSLSDENVLNYIDLSDEYSIVELLATRKLDSKSIIDLNVRAKYGCTILAIKHHGDICLSPAPEDIIREQDCLVIMGHKKDIKRFENEGM
# notes: KtrA of B. subtilis with A80P; tag-less; source: E. coli BL21(DE3), purified (anion exchange, ATP-agarose, size exclusion)
# B2: wild-type KtrA (natural protein, B. subtilis)
# chain: B1 chain with P80A
# notes: KtrA, RCK domain protein of the B. subtilis KtrAB cation channel; tag-less; Tag-less, cloned in a modified pET-24d vector; eluted from ATP-agarose with ATP or ADP and kept with 1 mM nucleotide; also called KtrAWT; WT; source: E. coli BL21(DE3), purified (anion exchange, ATP-agarose, size exclusion)
# B3: KtrA R16K mutant (natural protein, B. subtilis)
# chain: B1 chain with R16K, P80A
# notes: KtrA of B. subtilis with R16K; tag-less; source: E. coli BL21(DE3), purified (anion exchange, ATP-agarose, size exclusion)
# B4: KtrA R16A mutant (natural protein, B. subtilis)
# chain: B1 chain with R16A, P80A
# notes: KtrA of B. subtilis with R16A; tag-less; source: E. coli BL21(DE3), purified (anion exchange, ATP-agarose, size exclusion)
# B5: KtrA E125Q mutant (natural protein, B. subtilis)
# chain: B1 chain with P80A, E125Q
# notes: KtrA of B. subtilis with E125Q; tag-less; source: E. coli BL21(DE3), purified (anion exchange, ATP-agarose, size exclusion)
# Target: the molecule itself
# Assay: SEC; KtrA alone, bound to ATP or ADP; Superdex-S200, Buffer C (50 mM Tris-HCl pH 7.5, 150 mM KCl, 5 mM DTT, 0.2 mM EDTA)
# Settings: not given
row,Binder,stoichiometry N
1,B1,8

# Target: the molecule itself
# Assay: crystal structure; KtrA (WT and mutants) with 1 mM ATP or ADP, sitting-drop vapor diffusion at 20°C; WT-ATP with 5 mM CaCl2
# Settings: not given
row,Binder,stoichiometry N
1,B2,8
2,B3,8
3,B4,8
4,B5,8

# Target: T1, KtrB
# Assay: SEC; purified KtrA-ATP (or ADP) added to Strep-KtrB on Strep-Tactin beads, 30 min 4°C, washed, eluted with desthiobiotin, tag cleaved by thrombin, then Superdex-S200 in Buffer F (10 mM HEPES, 7 mM NMG pH 8.0, 150 mM KCl, 0.5 mM DDM, 5 mM DTT, 0.2 mM EDTA)
# Settings: both partners purified
row,Binder,binding result
1,B2,binds
2,B4,binds
3,B1,binds
4,B5,binds
